Reference: the supplement of paper PMC10724198
± gives the standard deviation of the averaged measurements.

Tested on: Saccharomyces cerevisiae
Experiment: protein stability index of tFT-peptide fusion (C-terminal peptide) (PSI (0-1 scale)); higher = more stable (slower turnover)
Details: genetic background: wild type; temperature: 30 C
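Also: PSI is a weighted mean of sequencing reads over stability bins, variants kept only with over 10 reads, mCherry proximal and sfGFP distal, peptide attached via GGGS linker.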

Row | Sequence | protein stability index
1 | SFDPCLCTLSLL | 0.6961 ± 0.0049
2 | SFDPPYALLPPP | 0.685 ± 0.02
3 | SFIFTLRRSRPR | 0.667 ± 0.012
4 | SFLGYAVFPYKG | 0.6808 ± 0.0041
5 | SFLVPLTAHISP | 0.673 ± 0.083
6 | SFPLPSLSSPSS | 0.61 ± 0.075
7 | SFPPFSPLYSPP | 0.717 ± 0.067
8 | SFPPPLPPPLHP | 0.721 ± 0.06
9 | SFQCTCLSPCTG | 0.652 ± 0.07
10 | SFRPPSTPRRRT | 0.695 ± 0.03
11 | SFRYVGLTRVFG | 0.592 ± 0.032
12 | SFSCYFPLGFFG | 0.7416 ± 0.001
13 | SFSLSMFVTYSF | 0.505 ± 0.03
14 | SFSLVATESPVT | 0.709 ± 0.052
15 | SFSRLYGCVPRD | 0.678 ± 0.0098
16 | SFSSAVIPPFAP | 0.728 ± 0.053
17 | SFTLPPPLLSRT | 0.747 ± 0.008
18 | SFVDDILVRPIA | 0.715 ± 0.05
19 | SFVGGKLRTEYS | 0.71 ± 0.068
20 | SFVSDYIILIVL | 0.497 ± 0.081
21 | SFWNLFAGWYVI | 0.685 ± 0.03
22 | SGAGVGGQVAVG | 0.717 ± 0.061
23 | SGDVGVGHWVGG | 0.692 ± 0.022

Row | Sequence | protein stability index
24 | SGEKKPTKGTRT | 0.57 ± 0.055
25 | SGEVSYVYVGNK | 0.6553 ± 0.0011
26 | SGFLLSPPRPSF | 0.693 ± 0.042
27 | SGGAEGVRAGAA | 0.715 ± 0.081
28 | SGGQDSFVLRLG | 0.6687 ± 0.0015
29 | SGGRGAILVSVV | 0.647 ± 0.078
30 | SGGVKGKKKGEK | 0.702 ± 0.043
31 | SGHGFFMCLFRC | 0.552 ± 0.028
32 | SGIEAGAELGVG | 0.567 ± 0.011
33 | SGIEHVLIVYDT | 0.679 ± 0.11
34 | SGIRGWNLGEMW | 0.7152 ± 0.0068
35 | SGKIDKGAIAIS | 0.663 ± 0.049
36 | SGLPLLSSYATR | 0.72 ± 0.048
37 | SGLQPADMVFFR | 0.749 ± 0.056
38 | SGPSIPCFLYSS | 0.698 ± 0.013
39 | SGSFQGNVRVPC | 0.676 ± 0.017
40 | SGSRFRTVRAPE | 0.654 ± 0.032
41 | SGSRRTSRVGSR | 0.721 ± 0.0087
42 | SGSRWYYSLGRG | 0.709 ± 0.043
43 | SGSSLCSVGWLV | 0.718 ± 0.044
44 | SGSWRFYPSTTC | 0.706 ± 0.056
45 | SGTRDELVFVAV | 0.6755 ± 0.0061
46 | SGVEGTRQGSVS | 0.711 ± 0.068

Row | Sequence | protein stability index
47 | SGVLKHLRKESS | 0.641 ± 0.018
48 | SGVRSPALLGRC | 0.68 ± 0.042
49 | SHGELLLGPVFL | 0.748 ± 0.009
50 | SHGQAPFNVLVA | 0.596 ± 0.025
51 | SHHKAFFDLVFM | 0.7578 ± 0.0051
52 | SHLFPCRSSFPP | 0.656 ± 0.037
53 | SHLGPYPAPARP | 0.7185 ± 0.006
54 | SHLKEHREEELE | 0.647 ± 0.0097
55 | SHLSTLSHPPPP | 0.637 ± 0.043
56 | SHRLPPPPPPPS | 0.758 ± 0.14
57 | SHSHMRRLKMYR | 0.717 ± 0.089
58 | SHTAWEQRVPKQ | 0.729 ± 0.02
59 | SHVPLAKLSLFP | 0.756 ± 0.024
60 | SIDGFAFCVGGV | 0.737 ± 0.058
61 | SIKKFRTRKRRR | 0.67 ± 0.12
62 | SIRHPYEFFARS | 0.738 ± 0.031
63 | SIRLGGSVVELV | 0.694 ± 0.041
64 | SISIGVRHSRPP | 0.609 ± 0.033
65 | SISLSLSQSDRR | 0.614 ± 0.016
66 | SKEKKRPDNKTF | 0.71 ± 0.048
67 | SKKKRQNQLIKM | 0.7527 ± 0.0032
68 | SKKKTKKRRKKN | 0.698 ± 0.023
69 | SKNEFKKIMKKY | 0.711 ± 0.083

Row | Sequence | protein stability index
70 | SKSNIAGIRKEL | 0.6774 ± 0.0063
71 | SKSRGVIVTVMV | 0.5681 ± 0.00072
72 | SLAPPVILPSHP | 0.659 ± 0.041
73 | SLATFRTLLPES | 0.667 ± 0.019
74 | SLAVAPHIATQQ | 0.701 ± 0.011
75 | SLAVDVRVSWEI | 0.704 ± 0.017
76 | SLCPRVCSERVP | 0.722 ± 0.031
77 | SLCWDVLFLPVV | 0.736 ± 0.064
78 | SLELWPGAKGAP | 0.702 ± 0.1
79 | SLFFFNFPLCAL | 0.559 ± 0.019
80 | SLFGMACDGGLP | 0.6873 ± 0.0043
81 | SLFLFCLRCLQF | 0.576 ± 0.037
82 | SLFPSEPRPPSL | 0.719 ± 0.03
83 | SLGAPPAVVSSY | 0.6822 ± 0.0033
84 | SLHSPPHPPPHA | 0.673 ± 0.011
85 | SLLHSIPSSPPF | 0.729 ± 0.041
86 | SLLLPLFLPPSL | 0.723 ± 0.0086
87 | SLLLPPPPPSPH | 0.731 ± 0.042
88 | SLLPAPTPCPPP | 0.701 ± 0.033
89 | SLLPGGHRWAGI | 0.659 ± 0.025
90 | SLLRSPSLPQSN | 0.634 ± 0.095
91 | SLLSSPFPCLRQ | 0.766 ± 0.087
92 | SLLYIQDFVSGV | 0.683 ± 0.019

Row | Sequence | protein stability index
93 | SLMLDGRSTKAA | 0.6912 ± 0.0035
94 | SLMRRFRGQWRV | 0.71 ± 0.06
95 | SLPCLFPPPLLP | 0.726 ± 0.045
96 | SLPPDPPSSYSP | 0.632 ± 0.044
97 | SLPPPAAPLPFP | 0.7346 ± 0.00096
98 | SLPPPPSQLRPL | 0.726 ± 0.015
99 | SLPPPSPSPSLS | 0.649 ± 0.034
100 | SLPPTLPPRSCP | 0.6211 ± 0.0019
101 | SLPQAPLRPAPS | 0.656 ± 0.046
102 | SLPRSHRRGPVP | 0.663 ± 0.014
103 | SLPSWPPAPLPG | 0.703 ± 0.025
104 | SLPVLSSRTSIQ | 0.687 ± 0.012
105 | SLPVSSPIRILF | 0.6326 ± 0.0015
106 | SLQAYASALIHV | 0.687 ± 0.0098
107 | SLRKVTEKDKRT | 0.677 ± 0.064
108 | SLRRLSPLPLAS | 0.7 ± 0.04
109 | SLSEEWAHIGGL | 0.643 ± 0.0072
110 | SLSERPKFSIYV | 0.656 ± 0.049
111 | SLSGSPIPFIRL | 0.764 ± 0.072
112 | SLSIAPAPLDFP | 0.655 ± 0.084
113 | SLSLFPPRRLLP | 0.734 ± 0.088
114 | SLSSTVPRFCEV | 0.6241 ± 0.0028
115 | SLSVPTTLFLFS | 0.7 ± 0.017

Row | Sequence | protein stability index
116 | SLTLVCRKYILL | 0.633 ± 0.024
117 | SLVAALHRPTFV | 0.679 ± 0.034
118 | SLVCCGPVWVFL | 0.573 ± 0.022
119 | SLVLLSACRFGF | 0.654 ± 0.073
120 | SLVPFSPPRSPP | 0.689 ± 0.083
121 | SLVVFGFGGYLL | 0.686 ± 0.021
122 | SLWPLFVDVVCL | 0.498 ± 0.042
123 | SMCAFRPFPFSS | 0.70891 ± 0.00011
124 | SMCSVAGVWWLG | 0.728 ± 0.062
125 | SMDISYLISFQR | 0.7426 ± 0.0049
126 | SMYHSCTFRTTV | 0.586 ± 0.021
127 | SMYLPSSSDVLS | 0.736 ± 0.014
128 | SNGTRGSKLPAI | 0.685 ± 0.055
129 | SNIGFLLCSLFL | 0.59078 ± 4.5e-05
130 | SNLYNSENVPVD | 0.709 ± 0.041
131 | SPAARPLFRTIS | 0.61 ± 0.054
132 | SPAPPSQFPSFA | 0.818 ± 0.11
133 | SPCPLTVAPIIP | 0.644 ± 0.056
134 | SPCTPSRLQPSS | 0.65 ± 0.027
135 | SPDHATYHNPAR | 0.76 ± 0.074
136 | SPFPAPCVFPSR | 0.761 ± 0.1
137 | SPGARRRGGAGR | 0.659 ± 0.047
138 | SPIHSLNYASSC | 0.7217 ± 0.0015

Row | Sequence | protein stability index
139 | SPLAPLPPPPLT | 0.884 ± 0.1
140 | SPLDEYIDSVPA | 0.726 ± 0.017
141 | SPLLLLPAPPPP | 0.673 ± 0.014
142 | SPLLPPRSPPLP | 0.752 ± 0.032
143 | SPLLVLTPLFPP | 0.651 ± 0.074
144 | SPLPHPSPPPSP | 0.662 ± 0.016
145 | SPLPPPRSSSPP | 0.76 ± 0.14
146 | SPLPPPSHALLP | 0.712 ± 0.089
147 | SPLPRSLPPLPP | 0.654 ± 0.019
148 | SPLSLPPPHPPP | 0.654 ± 0.0069
149 | SPNAPMPPRPRH | 0.594 ± 0.033
150 | SPPICLPLFRVR | 0.65 ± 0.017
151 | SPPLCAPPHPPA | 0.679 ± 0.04
152 | SPPLLHLSNSRH | 0.654 ± 0.059
153 | SPPLNSFPPTPP | 0.62 ± 0.068
154 | SPPLPPLPLLQL | 0.696 ± 0.021
155 | SPPLRSRSGSFL | 0.699 ± 0.062
156 | SPPLTSPPPAPP | 0.7 ± 0.017
157 | SPPPALPPSSPS | 0.657 ± 0.025
158 | SPPPAPPRSGPL | 0.651 ± 0.051
159 | SPPPGPAPPMSP | 0.731 ± 0.03
160 | SPPPHPPAAPDS | 0.6626 ± 0.0058
